Assay results published in patent publication US20190112393 (published 2019).
Where a chain is given by its changes, count along the chain named. Like-named read-outs stand apart in the source and are kept apart here.

Experiments:
human FcγRIIb = target: T1, human FcγRIIb (human, UniProt P31994); assay: SPR
T1 chain: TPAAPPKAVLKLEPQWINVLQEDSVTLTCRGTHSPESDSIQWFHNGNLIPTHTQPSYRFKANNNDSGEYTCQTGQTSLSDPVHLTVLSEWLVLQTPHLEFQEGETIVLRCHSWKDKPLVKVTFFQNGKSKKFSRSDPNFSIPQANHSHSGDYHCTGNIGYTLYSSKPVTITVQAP

human FcγRIa [1] = target: T2, human FcγRIa (human, UniProt P12314); assay: SPR
T2 chain: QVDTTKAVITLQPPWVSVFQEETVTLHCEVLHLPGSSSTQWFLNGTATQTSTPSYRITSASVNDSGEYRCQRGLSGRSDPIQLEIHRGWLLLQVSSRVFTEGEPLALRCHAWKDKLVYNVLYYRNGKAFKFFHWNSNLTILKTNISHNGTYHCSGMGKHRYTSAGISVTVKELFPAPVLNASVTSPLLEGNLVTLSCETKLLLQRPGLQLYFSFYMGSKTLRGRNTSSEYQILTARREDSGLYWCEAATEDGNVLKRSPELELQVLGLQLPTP

human FcγRIa [2] = target: T2, human FcγRIa; assay: SPR
human FcRn [3] = target: human FcRn (human); assay: SPR, pH 6.0
human FcRn (human), sequence (chain, as listed by the source, chain 1 of 2): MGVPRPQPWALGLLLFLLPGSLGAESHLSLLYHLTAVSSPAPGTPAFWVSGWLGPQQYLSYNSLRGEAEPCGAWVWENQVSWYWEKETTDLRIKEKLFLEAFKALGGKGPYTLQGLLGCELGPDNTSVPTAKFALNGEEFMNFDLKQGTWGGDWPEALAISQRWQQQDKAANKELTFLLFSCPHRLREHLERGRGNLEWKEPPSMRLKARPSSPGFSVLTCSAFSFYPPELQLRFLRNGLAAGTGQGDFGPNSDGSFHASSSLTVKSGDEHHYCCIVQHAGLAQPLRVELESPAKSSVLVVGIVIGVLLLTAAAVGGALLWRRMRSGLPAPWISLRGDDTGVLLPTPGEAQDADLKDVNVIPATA
human FcRn (human), sequence (chain, as listed by the source, chain 2 of 2): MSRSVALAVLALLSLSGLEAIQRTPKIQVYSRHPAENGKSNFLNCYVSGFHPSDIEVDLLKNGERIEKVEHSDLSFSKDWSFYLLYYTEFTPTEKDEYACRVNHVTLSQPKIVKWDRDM

human FcRn [4] = target: human FcRn (human); assay: SPR, pH 6.0; remark: listed apart in the source

B1: BP547 (antibody)
chain 1: QVQLQESGPGLVKPSETLSLTCAVSGHSISHDHAWSWVRQPPGEGLEWIGFISYSGITNYNPSLQGRVTISRDNSKNTLYLQMNSLRAEDTAVYYCARSLARTTAMDYWGEGTLVTVSSASTKGPSVFPLAPSSKSTSGGTAALGCLVKDYFPEPVTVSWNSGALTSGVHTFPAVLQSSGLYSLSSVVTVPSSSLGTQTYICNVNHKPSNTKVDKKVEPKSCDKTHTCPPCPAPDLLGDDSVFLFPPKPKDTLMISRTPEVTCVVVDVSDEDGEVKFNWYVDGVEVHNAKTKPREEQDNSTYRVVSVLTVLHQDWLNGKEYKCKVSNKALPRPIEKTISKAKGQPREPQVYTLPPSRDELTKNQVSLTCLVKGFYPSDIAVEWESNGQPENNYKTTPPVLDSDGSFFLYSRLTVDKSRWQQGNVFSCSVMHEALHNHYTQESLSLSP
chain 2: not shown
Kd (human FcγRIIb): 19 nM | Kd (human FcγRIa [1]): 12 nM

B2: BP435 (antibody)
chain 1: B1 chain 1 with K328A, I334T, R411K
chain 2: not shown
Kd (human FcγRIa [2]): 1 nM

B3: BP548 (antibody)
chain 1: B1 chain 1 with R411K, Q421E
chain 2: not shown
Kd (human FcγRIIb): 19 nM | Kd (human FcγRIa [1]): 12 nM

B4: BP546 (antibody)
chain 1: B1 chain 1 with L360M, R411K
chain 2: not shown
Kd (human FcγRIIb): 15 nM | Kd (human FcγRIa [1]): 9 nM

B5: BP545 (antibody)
chain 1: B1 chain 1 with D358E, R411K
chain 2: not shown
Kd (human FcγRIIb): 17 nM

B6: BP230 (antibody)
chain 1: B1 chain 1 with R411K
chain 2: not shown
Kd (human FcγRIIb): 18 nM | Kd (human FcγRIa [1]): 10 nM

B7: BP541 (antibody)
chain 1: B1 chain 1 with K276Q, R411K
chain 2: not shown
Kd (human FcγRIIb): 16 nM | Kd (human FcγRIa [1]): 11 nM

B8: BP543 (antibody)
chain 1: B1 chain 1 with D270Q, R411K
chain 2: not shown
Kd (human FcγRIIb): 20 nM | Kd (human FcγRIa [1]): 23 nM

B9: BP264 (antibody)
chain 1: B1 chain 1 with D270E, R411K
chain 2: not shown
Kd (human FcγRIa [2]): 7.4 nM

B10: BP544 (antibody)
chain 1: B1 chain 1 with R357Q, R411K
chain 2: not shown
Kd (human FcγRIIb): 17 nM | Kd (human FcγRIa [1]): 9.8 nM

B11: BP542 (antibody)
chain 1: B1 chain 1 with D298F, R411K
chain 2: not shown
Kd (human FcγRIIb): 20 nM

B12: BP426 (antibody)
chain 1: B1 chain 1 with S269A, D270E, E271D, D298Y, R411K
chain 2: not shown
Kd (human FcγRIa [2]): 1 nM

B13: F1382 (antibody)
chain 1: QVQLQESGPGLVKPSETLSLTCAVSGHSISHDHAWSWVRQPPGEGLEWIGFISYSGITNYNPSLQGRVTISRDNSKNTLYLQMNSLRAEDTAVYYCARSLARTTAMDYWGEGTLVTVSSASTKGPSVFPLAPSSKSTSGGTAALGCLVKDYFPEPVTVSWNSGALTSGVHTFPAVLQSSGLYSLSSVVTVPSSSLGTQTYICNVNHKPSNTKVDKKVEPKSCDKTHTCPPCPAPELLGGPSVFLFPPKPKDTLMISRTPEVTCVVVDVSHEDPEVKFNWYVDGVEVHNAKTKPREEQYNSTYRVVSVLTVLHQDWLNGKEYKCKVSNKALPAPIEKTISKAKGQPREPQVYTLPPSRDELTKNQVSLTCLVKGFYPSDIAVEWESNGQPENNYKTTPPVLDSDGSFFLYSKLTVDKSRWQQGNVFSCKVLHEALHSHYTQKSLSLSP
chain 2: DIQMTQSPSSLSASVGDSVTITCQASTDISSHLNWYQQKPGKAPELLIYYGSHLLSGVPSRFSGSGSGTDFTFTISSLEAEDAATYYCGQGNRLPYTFGQGTKVEIERTVAAPSVFIFPPSDEQLKSGTASVVCLLNNFYPREAKVQWKVDNALQSGNSQESVTEQDSKDSTYSLSSTLTLSKADYEKHKVYACEVTHQGLSSPVTKSFNRGEC
Kd (human FcRn [3]): 130 nM

B14: F1390 (antibody)
chain 1: B13 chain 1 with K428S, Y438H
chain 2: B13 chain 2
Kd (human FcRn [3]): 400 nM

B15: F1380 (antibody)
chain 1: B13 chain 1 with K428D
chain 2: B13 chain 2
Kd (human FcRn [3]): 73 nM

B16: F1172 (antibody)
chain 1: B13 chain 1 with K428S, L430M, S436H, Q440R, S442E
chain 2: B13 chain 2
Kd (human FcRn [4]): 400 nM

B17: F1391 (antibody)
chain 1: B13 chain 1 with K428S, Y438N
chain 2: B13 chain 2
Kd (human FcRn [3]): 420 nM

B18: F1170 (antibody)
chain 1: B13 chain 1 with K428S, Q440R, S442E
chain 2: B13 chain 2
Kd (human FcRn [4]): 150 nM

B19: F1389 (antibody)
chain 1: B13 chain 1 with K428S, Y438T
chain 2: B13 chain 2
Kd (human FcRn [3]): 68 nM

B20: F1381 (antibody)
chain 1: B13 chain 1 with K428E
chain 2: B13 chain 2
Kd (human FcRn [3]): 86 nM

B21: F1171 (antibody)
chain 1: B13 chain 1 with S426N, K428S
chain 2: B13 chain 2
Kd (human FcRn [4]): 240 nM

B22: F1388 (antibody)
chain 1: B13 chain 1 with K428S, Y438F
chain 2: B13 chain 2
Kd (human FcRn [3]): 80 nM

B23: Fv4-IgG1 (antibody)
chain 1: not shown
chain 2: B13 chain 2
Kd (human FcRn [4]): 2400 nM

B24: F1385 (antibody)
chain 1: B13 chain 1 with K428Q
chain 2: B13 chain 2
Kd (human FcRn [3]): 77 nM

B25: F1166 (antibody)
chain 1: B13 chain 1 with M254Y, S256T, T258E, K428S, L430M, S436N, Q440R, S442E
chain 2: B13 chain 2
Kd (human FcRn [4]): 210 nM

B26: F1383 (antibody)
chain 1: B13 chain 1 with K428R
chain 2: B13 chain 2
Kd (human FcRn [3]): 160 nM

B27: F1392 (antibody)
chain 1: B13 chain 1 with K428S, Y438K
chain 2: B13 chain 2
Kd (human FcRn [3]): 270 nM

B28: Fv4-YTE (antibody)
chain 1: B13 chain 1 with M254Y, S256T, T258E, K428S, L430M, S436N
chain 2: B13 chain 2
Kd (human FcRn [4]): 210 nM

B29: F1386 (antibody)
chain 1: B13 chain 1 with K428Y
chain 2: B13 chain 2
Kd (human FcRn [3]): 160 nM

B30: F1167 (antibody)
chain 1: B13 chain 1 with M254Y, S256T, T258E, S426N, K428S, L430M, S436N
chain 2: B13 chain 2
Kd (human FcRn [4]): 250 nM

B31: F1384 (antibody)
chain 1: B13 chain 1 with K428A
chain 2: B13 chain 2
Kd (human FcRn [3]): 86 nM

B32: F1387 (antibody)
chain 1: B13 chain 1 with K428S, Y438M
chain 2: B13 chain 2
Kd (human FcRn [3]): 150 nM
